Data from the supplement of paper PMC12764529.
± gives the half width of the 95% confidence interval.

What was measured:
[1] = folding stability dG unfold from trypsin proteolysis; higher = more stable
How it was run: (§1)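 K50 was inferred by Bayesian fitting of sequencing counts obtained after protease digestion of designed mini-proteins. Unfolding free energy was derived by comparison with a sequence-predicted unfolded-state K50 and a shared folded-state K50, for each protease or both combined. The mini-proteins were under 80 residues, had no cysteine, were carried in a PA-tagged cDNA display construct, and were kept only if AlphaFold2 dimer inter-PAE exceeded 15.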

[2] = folding stability dG unfold (combined trypsin and chymotrypsin); higher = more stable
How it was run: as §1

[3] = folding stability dG unfold from chymotrypsin proteolysis; higher = more stable
How it was run: as §1

| Sequence | folding stability dG unfold [1] [kcal/mol] | folding stability dG unfold [2] [kcal/mol] | folding stability dG unfold [3] [kcal/mol] |
| --- | --- | --- | --- |
| SAGGSKMPPGYKMIPIEIPFRTPEDLEQAINFAEELAREGFTIIDIDVEIPEGDNYRVEFHIMLPYSAGGSA [r2_350_TrROS] | 1.85 ± 0.056 | 2.31 ± 0.1 | 2.6 ± 0.048 |
| SAGGSKPILKIKITIYRIDKNGKLIKKIELTLPPLTEEQLKKLLEALKKLPKDVKIVEVKIELVEPSAGGSA [r2_75_TrROS_Hall] | 3.49 ± 0.32 | 4.16 ± 0.31 | 4.54 ± 0.26 |
| SAGGSKPLKKIVIPLTPEELKKLKGKKVKITIKVDGKEYEIEFIDGYAVITVPAGEKVEITKIEIESAGGSA [r2_246_TrROS_Hall] | 2.47 ± 0.15 | 2.41 ± 0.22 | 2.36 ± 0.12 |
| SAGGSKPVKVTVRRDPKNPDKWTVTVTAGDKTTTLTFDPNDEAAVRAALEAALPADEVLEELEFEDLLSAGG [r13_519_JUSTAS] | 2.8 ± 0.12 | 2.88 ± 0.17 | 2.99 ± 0.043 |
| SAGGSKTITIELTTKDGYKFTITVTEKDDKVTANITFLDPTVTPEKIDETIATLEKLAKEAGKNLTISSAGG [r13_774_TrMRF] | 2.62 ± 0.11 | 3.36 ± 0.095 | 3.66 ± 0.088 |
| SAGGSKVRIEVEELPDGTVKVTAEVEVDGVLYKIEAEFRINEDGEIVEMKVKIEARPLPPPPPPEESAGGSA [r2_474_TrROS_Hall] | 3.5 ± 0.27 | 3.92 ± 0.21 | 4.17 ± 0.17 |
| SAGGSLEDFELAGTFPATSEGETLLVTVWKSKEPGKYVVSAYYPSTGIPEVKVVNPEDIEEFFKNLYSAGGS [r8_469_TrMRF] | 1.48 ± 0.02 | 1.78 ± 0.054 | 1.95 ± 0.051 |
| SAGGSLELPEGAKVEVEVEIEEVDDDTVKIKVKVKFTFINEDGEPETFEAEFEFEIPKEEAEELLGSAGGSA [r2_226_TrMRF] | 1.88 ± 0.17 | 3.32 ± 0.13 | 3.66 ± 0.11 |
| SAGGSLFEKLNVKSVEVTEVKTYTLPPLPLTVEVPTVKVTLPDGTVIEFTVIKTYDPEDPTPTVTLGSAGGS [r8_422_JUSTAS] | 0.822 ± 0.027 | 1.08 ± 0.07 | 1.31 ± 0.12 |
| SAGGSLKDMPVEDLAKYFARKMGYPITDVKVERNPDPPWIKINIEMEHPNDGRRHPHEIWIPKDDISAGGSA [r2_156_TrROS] | 0.527 ± 0.062 | 0.995 ± 0.083 | 1.3 ± 0.11 |
| SAGGSLLEQEAAARGYQVEIERIPGTGVYLVTLTPPDGSRVVVTVEVVKTPKTGLVELRTLETRELPPSAGG [r13_936_JUSTAS] | 1.24 ± 0.023 | 1.53 ± 0.052 | 1.707 ± 0.011 |
| SAGGSLSEIIEKAKELAKKKYPNKGVTVPVEIKYKDPVKKKWIKVKIEITFDKNGNIIKITIKEIKLESAGG [r13_770_JUSTAS] | 3.48 ± 0.27 | 3.91 ± 0.41 | 4.04 ± 0.12 |
| SAGGSMAKILEIIPEEKKIVVEFEGDPKTFPLDEIEEIRIEPEKGYLTIKVGDKVYTIPLDDPNDFSAGGSA [r2_48_TrMRF] | 0.579 ± 0.027 | 1.81 ± 0.082 | 2.25 ± 0.044 |
| SAGGSMDLRVVVVGEDGKVLELPAGEEVSLPDVVAFFSELGDFEVEAHPESGTLTIRVPKGVLEEASAGGSA [r2_164_TrMRF] | 0.543 ± 0.02 | 0.728 ± 0.046 | 0.804 ± 0.042 |
| SAGGSMEIVKKETFTLEDGRKIEVVYDKETNKYVVKIYNKETGEEVEITVKSKEEAEEALKKLLEESAGGSA [r2_70_TrROS_Hall] | 1.88 ± 0.13 | 3.43 ± 0.37 | 3.76 ± 0.072 |
| SAGGSMIEEAIEEALKKGLEKVEIEVEVEVNGKIYRVKMEIVKVEEGKVEIKIEVEEIDPETGKLISAGGSA [r2_420_TrROS_Hall] | 2.54 ± 0.13 | 3.53 ± 0.19 | 3.92 ± 0.15 |
| SAGGSMIELTLTSTVPDGTPASTVPPEVAREQALAYAEAQGLTVVEIRVEFDPEAGTITIPVVTALSAGGSA [r2_237_JUSTAS] | 1.38 ± 0.042 | 1.11 ± 0.12 | 0.679 ± 0.13 |
| SAGGSMISTLSESVDPAKNTTYYLNLYTEGSRAYGALVTVTTDPATGTKTITTKFPALPEVTTTETVASAGG [r13_615_JUSTAS] | 0.511 ± 0.026 | 0.551 ± 0.034 | 0.489 ± 0.061 |

| Sequence | folding stability dG unfold [1] [kcal/mol] | folding stability dG unfold [2] [kcal/mol] | folding stability dG unfold [3] [kcal/mol] |
| --- | --- | --- | --- |
| SAGGSMIVIVEIKPDGTIKIKVRTKDGKEKTIEISKEELEKEETPEEIAEKLAKEFEKEGVEEIEISAGGSA [r2_249_TrROS_Hall] | 2.88 ± 0.26 | 2.26 ± 0.32 | 2.19 ± 0.54 |
| SAGGSMKEIVELGEVEFEEDSVALKVKFKVKLVFYDPETGEKVEEREEELEVYFGGDTLEFSPVEGSAGGSA [r2_271_TrMRF] | 1.49 ± 0.045 | 2.08 ± 0.11 | 2.373 ± 0.02 |
| SAGGSMKIVEIKIKRNKNGKLTIEIKVELSEEELEDKEKRKKLIEELAKKLAEELEKKFGIKVEVPSAGGSA [r2_306_TrROS_Hall] | 3.16 ± 0.089 | 3.28 ± 0.14 | 3.28 ± 0.091 |
| SAGGSMKVKIEVEKTPKGYKVRITVEKDGKTYEFEFPEDMSLEEVLEKLKKELEKEGVEIEKIEIVSAGGSA [r2_497_TrROS_Hall] | 3.15 ± 0.13 | 4.43 ± 0.26 | 4.58 ± 0.15 |
| SAGGSMLEVYYRIPPDIPLEEALERVAREVEEVLRARYGGPVTVEAEEVERPPDDETLLRVLVRFESAGGSA [r2_214_TrMRF] | 1.7 ± 0.03 | 2.37 ± 0.11 | 2.558 ± 0.024 |
| SAGGSMLTPDQVIELPDPNVTATITESEVLEEDPEHGTLLVKYLVVISKNGNPVEEERLLRVPKPVSAGGSA [r2_272_JUSTAS] | 0.205 ± 0.042 | -0.01 ± 0.079 | -0.476 ± 0.22 |
| SAGGSMNPSVSVEEEVFPDGVTRLKLTFSDGKELEAEVTRHADGNVQVTLYDKSPGKKTTYTIPLSSAGGSA [r2_99_JUSTAS] | 0.65 ± 0.12 | 1.21 ± 0.21 | 1.57 ± 0.22 |
| SAGGSMNPYSETITVNLPVPTPSGGSVVRPVTVPISIVYEDEKELEEALKKAKEEAEAAARKALGLESAGGS [r16_339_JUSTAS] | 1.37 ± 0.067 | 1.05 ± 0.11 | 0.685 ± 0.069 |
| SAGGSMPPDTEIAVIRVEVRPPDGSTLPLLFTVPLEKVEEVAKEIAERLREKGYEVKVELAAVFPVSAGGSA [r2_274_TrMRF] | 2.06 ± 0.057 | 2.04 ± 0.11 | 2.18 ± 0.06 |
| SAGGSMPPIVASVVEVRFYRFEEEDRERLEAEVTLKLKDGSTATIRLEFPDLSEEELLKTVEETLLSAGGSA [r2_26_JUSTAS] | 1.78 ± 0.042 | 2.31 ± 0.043 | 2.525 ± 0.022 |
| SAGGSMPVPYESKNVSPSGVEVSSTTYPYDFQIEKFPGSNPVITRTDPKTGEVTPIGTEEELEKLLKSAGGS [r8_232_JUSTAS] | -0.172 ± 0.047 | 0.0982 ± 0.13 | 0.182 ± 0.21 |
| SAGGSMSAEELREKIAADPRISLDDVTVTVTRTPDSVTVTVTLKDPNDPVYVEAEERARALFAELASAGGSA [r2_3_JUSTAS] | 0.704 ± 0.024 | 0.16 ± 0.049 | -1 ± 0.24 |
| SAGGSMTAEELAEELAARHPDATVERSPSGVVTFRLPATGLTVTVSSGAGELRITVEDPTVPRRTLESAGGS [r16_478_JUSTAS] | 0.0944 ± 0.27 | -0.312 ± 0.3 | -0.527 ± 0.5 |
| SAGGSMTAEELEGLPAEEIAELLPSDYTVSFIPETGLLVVEAPTRVVLATYNPAEGTVTLLEVRDASAGGSA [r2_470_TrMRF] | 0.849 ± 0.086 | 0.91 ± 0.12 | 0.819 ± 0.07 |
| SAGGSMTEEELEKKAKEIAEELEKKYKEENPNVEVKVTFEVIPEKGIIKITATSPKGKKLKEIIIPLLSAGG [r13_247_JUSTAS] | 3.74 ± 0.28 | 3.9 ± 0.31 | 3.54 ± 0.23 |
| SAGGSMTEEERRALAEEIAKEVAEKISEEEGIPVKEILSIEVHPDGSVTITIKFPGTEGERTITIPRSAGGS [r16_622_JUSTAS] | 1.96 ± 0.067 | 2.27 ± 0.19 | 2.38 ± 0.17 |
| SAGGSMTITITNEDGSTYEITVEEENGKLRITITVDGKTVEIEFDKETGKITIRYNGKTFTLTIKPSAGGSA [r2_194_TrROS_Hall] | 3.85 ± 0.19 | 5 ± 0.42 | 5.33 ± 0.13 |
| SAGGSMTITYDPETNTVTILDPNIPPNEPRPVTLTLPDGEKYTLTLRPVPGNGWTGTLTWKSTKDGSAGGSA [r2_89_TrMRF] | 0.911 ± 0.05 | 1.27 ± 0.21 | 1.54 ± 0.19 |
